PMC9461283 (Biosafety and Health, 2022)

B1: African Green monkey (Chlorocebus sabaeus) ACE2 ectodomain (ectoACE2), N-terminal 367 aa (domain or fragment)
chain: QSTIEEQAKTFLDKFNPEAEDLFYQSSLASWNYNTNITEENVQNMNNAGEKWSAFLKEQSTLAQMYPLQAIQNLTVKLQLQALQQNGSSVLSEDKSKRLNTILNTMSTIYSTGKVCNPNNPQECLLLDPGLNEIMEKSLDYNERLWAWEGWRSEVGKQLRPLYEEYVVLKNEMARANHYKDYGDYWRGDYEVNGVDGYDYNRDQLIEDVERTFEEIKPLYEHLHAYVRAKLMNAYPSYISPTGCLPAHLLGDMWGRFWTNLYSLTVPFGQKPNIDVTDAMVNQAWNAQRIFKEAEKFFVSVGLPNMTQGFWENSMLTDPGNVQKVVCHPTAWDLGKGDFRIIMCTKVTMD
B2: human ACE2 ectodomain (ectoACE2), N-terminal 367 aa (domain or fragment)
chain: QSTIEEQAKTFLDKFNHEAEDLFYQSSLASWNYNTNITEENVQNMNNAGDKWSAFLKEQSTLAQMYPLQEIQNLTVKLQLQALQQNGSSVLSEDKSKRLNTILNTMSTIYSTGKVCNPDNPQECLLLEPGLNEIMANSLDYNERLWAWESWRSEVGKQLRPLYEEYVVLKNEMARANHYEDYGDYWRGDYEVNGVDGYDYSRGQLIEDVEHTFEEIKPLYEHLHAYVRAKLMNAYPSYISPIGCLPAHLLGDMWGRFWTNLYSLTVPFGQKPNIDVTDAMVDQAWDAQRIFKEAEKFFVSVGLPNMTQGFWENSMLTDPGNVQKAVCHPTAWDLGKGDFRILMCTKVTMD

Tests used:
[1] = biological target: SARS-CoV-2 S receptor-binding domain (RBD) (SARS-CoV-2 (isolate Wuhan-Hu-1), UniProt P0DTC2); assay: SPR
[2] = biological target: SARS-CoV-2 S receptor-binding domain (RBD) (SARS-CoV-2 (isolate Wuhan-Hu-1), UniProt P0DTC2); assay: SPR; remark: listed apart in the source

| Binder | Kd [1] | Kd [2] |
| --- | --- | --- |
| B1 | 67.6 nM |  |
| B2 |  | 61.2 nM |
